[ ]: non-standard residue; d: D form. βSer = β-serine (lower case s in P1); βArg = β-arginine (lower case r); βLeu = β-leucine (lower case l)
Key:
Assay in all cases: cell-based or functional assay
[1] = target: T1, purified recombinant ADAM8
T1 sequence (Q05910 whole entry, species assumed, looked up): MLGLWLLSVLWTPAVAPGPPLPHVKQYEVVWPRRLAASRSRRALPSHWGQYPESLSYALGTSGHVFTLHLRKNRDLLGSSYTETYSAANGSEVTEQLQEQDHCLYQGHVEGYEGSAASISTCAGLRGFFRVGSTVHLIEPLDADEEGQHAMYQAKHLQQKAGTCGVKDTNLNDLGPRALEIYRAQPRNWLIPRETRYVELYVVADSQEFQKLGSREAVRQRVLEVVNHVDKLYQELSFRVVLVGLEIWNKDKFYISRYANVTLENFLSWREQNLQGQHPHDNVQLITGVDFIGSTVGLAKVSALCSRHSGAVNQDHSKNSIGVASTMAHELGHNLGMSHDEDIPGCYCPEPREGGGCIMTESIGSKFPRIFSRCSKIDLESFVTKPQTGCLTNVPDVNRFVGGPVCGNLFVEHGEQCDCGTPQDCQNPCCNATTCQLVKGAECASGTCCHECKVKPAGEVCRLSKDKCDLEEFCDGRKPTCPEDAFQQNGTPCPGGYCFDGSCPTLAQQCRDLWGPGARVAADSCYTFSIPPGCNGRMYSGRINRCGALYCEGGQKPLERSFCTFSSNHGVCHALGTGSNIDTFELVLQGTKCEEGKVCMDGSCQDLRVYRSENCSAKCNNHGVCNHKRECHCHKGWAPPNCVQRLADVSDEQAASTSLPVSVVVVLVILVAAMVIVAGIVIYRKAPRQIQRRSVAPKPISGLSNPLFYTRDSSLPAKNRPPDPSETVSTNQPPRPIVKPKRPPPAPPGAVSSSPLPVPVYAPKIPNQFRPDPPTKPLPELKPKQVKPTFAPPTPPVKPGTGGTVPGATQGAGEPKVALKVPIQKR

[2] = target: T1, purified recombinant ADAM8; remark: listed apart in the source
[3] = target: T1, purified recombinant ADAM8; remark: listed apart in the source

B1: cyclic peptide P2, c(rLSKDK) (peptide)
peptide: cyclo([βArg]LSKDK)
A8 Inhibition (IC50) [1]: > 500 nM

B2: cyclic peptide P1, c(RLsKDK), cyclo(Arg-Leu-{β-Ser}-Lys-Asp-Lys) (peptide)
peptide: cyclo(RL[βSer]KDK)
A8 Inhibition (IC50) [1]: 100 nM | IC50 of inhibition of ADAM8 catalytic activity [2]: ~50 nM | ADAM inhibition with P1 (IC50; CD23 fluorogenic substrate) [3]: 100 nM

B3: cyclic peptide P3, c(RlSKDK) (peptide)
peptide: cyclo(R[βLeu]SKDK)
A8 Inhibition (IC50) [1]: > 500 nM
